Test [1] deals with T1, SARS-CoV-2 spike protein receptor binding domain (RBD2) (SARS-CoV-2, UniProt P0DTC2 319-537). Put plainly: SPR, immobilized antibody, RBD injected, 1:1 fit. (In SPR one partner is held on a chip, and binding of the other changes the refractive index at the surface.)
In test [2] the target is SARS-CoV-2 spike protein on whole SARS-CoV-2 virus (SARS-CoV-2, UniProt P0DTC2 14-1273). Put plainly: cell-based or functional assay.
The target of test [3] is T1, SARS-CoV-2 spike protein receptor …. Put plainly: SPR sandwich binning, ligand H01.
For test [4] the target is unchanged. Put plainly: SPR sandwich binning, ligand E01.
The target is the same in test [5]. Put plainly: SPR sandwich binning, ligand E08.
Test [6] shares this target. Put plainly: SPR sandwich binning, ligand Anti-His.
For test [7] the target is unchanged. Put plainly: SPR sandwich binning, ligand S01.
Test [8] shares this target. Put plainly: SPR sandwich binning, ligand H05.
Test [9] shares this target. Put plainly: SPR sandwich binning, ligand B04.
The target is the same in test [10]. Put plainly: SPR.
The target is the same in test [11].
For test [12] the target is unchanged. Put plainly: SPR sandwich binning, ligand G07.
The target is the same in test [13]. Put plainly: SPR sandwich binning, ligand CR3022.
Test [14] shares this target. Put plainly: SPR sandwich binning, ligand F07.
Test [15] has the same target. Put plainly: SPR, IgG.
Test [16] has as its target T2, human ACE2 receptor on HEK cells (Human ACE2 293 cell line) (human, UniProt Q9BYF1 18-805).
T2 construct: whole, on cells; also called HEK-ACE2; ACE2 293 cells
Put plainly: fluorescence microscopy, PE-labelled IgG on HEK-ACE2 cells without RBD2-sfGFP.

Test [17] deals with T1, SARS-CoV-2 spike protein receptor …. The source holds these as a separate data set.
The target is the same in test [18]. Put plainly: SPR sandwich binning, ligand NN54.
Test [19] has as its target SARS-CoV spike protein receptor binding domain (RBD1) (SARS-CoV, UniProt P59594 306-527). Put plainly: ELISA, minibodies (FIG. 6). On the technique in general: An ELISA detects its analyte on a solid surface through an enzyme-linked reagent.

Read-outs that look alike come from different tables or passages of the source.

T2 sequence (Q9BYF1 18-805): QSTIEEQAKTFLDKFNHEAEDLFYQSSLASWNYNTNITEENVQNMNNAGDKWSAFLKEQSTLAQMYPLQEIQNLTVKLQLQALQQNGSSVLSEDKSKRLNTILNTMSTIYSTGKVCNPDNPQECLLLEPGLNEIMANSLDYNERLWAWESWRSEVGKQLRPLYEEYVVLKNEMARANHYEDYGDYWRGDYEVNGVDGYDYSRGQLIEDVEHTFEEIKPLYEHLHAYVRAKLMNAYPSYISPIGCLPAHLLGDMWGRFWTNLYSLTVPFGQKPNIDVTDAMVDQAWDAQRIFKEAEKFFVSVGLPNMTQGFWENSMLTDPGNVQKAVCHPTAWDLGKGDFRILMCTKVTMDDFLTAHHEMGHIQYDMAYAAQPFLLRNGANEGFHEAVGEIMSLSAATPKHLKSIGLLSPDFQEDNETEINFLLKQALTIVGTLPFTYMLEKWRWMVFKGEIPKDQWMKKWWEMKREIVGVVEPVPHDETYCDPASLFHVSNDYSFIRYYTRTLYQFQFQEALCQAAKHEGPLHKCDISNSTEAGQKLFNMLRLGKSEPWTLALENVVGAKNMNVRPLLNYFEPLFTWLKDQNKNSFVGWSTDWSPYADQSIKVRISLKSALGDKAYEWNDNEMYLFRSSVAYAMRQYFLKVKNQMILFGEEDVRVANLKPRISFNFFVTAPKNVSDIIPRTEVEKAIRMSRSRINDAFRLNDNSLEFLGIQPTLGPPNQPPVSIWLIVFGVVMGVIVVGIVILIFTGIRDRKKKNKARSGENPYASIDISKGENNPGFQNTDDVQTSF

B1: E08 IgG1 (antibody, V domains shown)
VH: QVQLVQSGAEVKKPGSSVKVSCKASGGTFSSYAISWVRQAPGQGLEWMGGIIPIFGTANYAQKFQGRVTITADESTSTAYMELSSLRSEDTAVYYCARASGRWLQFWHYYGMDVWGQGTTVTVSS
VL: SYVLTQPPSVSVAPGKTARITCGGNNIGWKSVHWYQQKPGQAPVLVVYDDSDRPSGIPERFSGSNSGNTATLTISRVEAGDEADYYCQVWDSSSDLVVFGGGTKLTVL
For B1, the dissociation constant (Kd) in test [1] came to 27 nM; in [10], 27 nM; in test [11], 26 nM. The “NT50 (nM), half neutralization titer” value in test [2] was 52.9 nM. Moreover, the “Nmax (%), neutralization maximum” value in test [2] amounted to 70.4%. Further, the “normalized analyte binding to RBD2 held by the immobilized ligand” value (from here on “normalized analyte binding to RBD2 held”) is 0.13 in test [3]; 2.15 in test [4]; -0.09 in test [5]; 1.81 in test [6]; 1.85 in [7]; -0.11 in test [8]. For the same molecule, the “normalized analyte binding to RBD2 held” value in test [9] was 2.12; in test [12] it was 2.62; in [13], -0.08; in [14], 1.32.

B2: G07 IgG1 (antibody, V domains shown)
VH: QVQLVQSGAEVKKPGESLKISCKGSGYSFTSYWIGWVRQMPGKGLEWMGIIYPGDSDIRYSPSFQGQVTISADKSFSSAYLQWSSLKASDTAMYYCARLGATGAFDIWGQGTTVTVSS
VL: QSVLIQPPSASGTPGQRVTISCSGSNSNFGSNSVSWYQQRPGTAPKLLIEGNNQRPSGVPERFSGSKSGTSASLAISGLQSEDEAEYSCASWDDSLNAFVFGPGTKLTVL
As to B2, the equilibrium dissociation constant (Kd) was determined as 320 nM in test [1], 2000 nM in [15], 320 nM in test [10] and 246 nM in test [17]. In addition, the “normalized analyte binding to RBD2 held” value in [3] was 0.94; in [4] it was 1.57; in test [5], 1.86; in test [6], 0.92; in test [8], 1.03; in [9], -0.03. Further, the “normalized analyte binding to RBD2 held” value in [12] was -0.05; in [13], 1.56; in test [14] it was 0.08; in test [18] it was 1.73. In addition, in test [16], the binding result is on record as “no binding (tested: 1 ug/mL)”.

B3: S01 minibody (scFv-Fc) (Fc fusion)
chain: EIVMTQSPSSLSASVGDSVTITCQASQDISNYLNWYQQKPGKAPKLLIYDASNLETGVPSRFSGGGSGTDFTLTITSLQPEDIATYYCQQYDNFPPTFGPGTKVDIKSGGSTITSYNVYYTKLSSSDTQVQLVESGGGLVKPGGSLRLSCAASGFTVGSNYMSWVRQAPGKGLEWVSVIYSGGSTYYADSVKGRFTISRDNSKNTLYLQMNSLRAEDTAVYYCARGSSGAWYFDLWGRGTLVTVSS
notes: also called 501
In test [10], B3 gave a Kd of 22700 nM. The binding result in [19] is recorded as “no binding”.

B4: E01 minibody (scFv-Fc) (Fc fusion)
chain: SYELTQPPSVSVAPGETARITCGGDNIGRRHVHWYQQKPGQAPVLVIYDDSDRPSGIPDRFSGSNSGNTATLTIGRVEAGDEADYYCQVWGSSNDPHVFGTGTKLTVLSGGSTITSNNVYYTKLSSSGTQVQLQQWGAGLLKPSETLSLKCAVYGGSFSGYYWGWIRQSTGKGLEWIGEINRSGSTNYNPSLKSRVTISVDTSKNQFSLKLSSVTAADTAVYYCARGGARYYYGSGSYRSTPRPYYFDYWGQGTLVTVSS
notes: also called E1
On to B4, for which the Kd in test [1] and in [10] was 21.5 nM in each case. In addition, the binding result in [19] is given as “no binding”.

B5: F07 minibody (scFv-Fc) (Fc fusion)
chain: SYVLTQPPSVSVAPGQTARITCGGNNIGSKSVHWYQQKPGQAPVLVVYDDSDRPSGIPERFSGSNSGNTATLIISRVEAGDEADYYCQVWDSSSVHYVFGTGTKLTVLSGGSTITSYNVYYTKLSSSGTQVQLVQSGAEVKKPGSSVRVSCKVSGYTFTGYYMHWVRQAPGQGLEWMGIINPSGGSTSYAQKFQGRVTMTRDTSTSTVYMELSSLRSEDTAVYYCARVRVGASDAFDIWGQGTMVTVSS
As to B5, the Kd in [1] and in test [10] was 61.5 nM throughout. Besides, the binding result in [19] is recorded as “no binding”.

B6: E01 IgG1 (antibody, V domains shown)
VH: QVQLQQWGAGLLKPSETLSLKCAVYGGSFSGYYWGWIRQSTGKGLEWIGEINRSGSTNYNPSLKSRVTISVDTSKNQFSLKLSSVTAADTAVYYCARGGARYYYGSGSYRSTPRPYYFDYWGQGTLVTVSS
VL: SYELTQPPSVSVAPGETARITCGGDNIGRRHVHWYQQKPGQAPVLVIYDDSDRPSGIPDRFSGSNSGNTATLTIGRVEAGDEADYYCQVWGSSNDPHVFGTGTKLTVL
notes: also called E1
On to B6, for which the dissociation constant (Kd) in [1] turned out to be 90 nM; in test [15], 48 nM; in test [10] it was 90 nM; in test [17], 90 nM. Moreover, the “NT50 (nM), half neutralization titer” value in test [2] stood at 6.4 nM. Also, the “Nmax (%), neutralization maximum” value in test [2] worked out at 104%. For the same molecule, the “normalized analyte binding to RBD2 held” value is 2.35 in [3]; -0.07 in test [4]; 2.33 in [5]; 2 in [6]; 0.03 in test [7]; 2.18 in test [8]. The “normalized analyte binding to RBD2 held” value is -0.09 in test [9]; 2.43 in test [12]; 2.39 in test [13]; 0.62 in test [14]; 2.78 in test [18].

B7: H01 IgG1 (antibody, V domains shown)
VH: QVTLKESGPVLVKPTETLTLTCTVSGFSLSNARMGVSWIRQPPGKALEWLAHIFSNGEKSYSTSLKSRLTISKDTSKSQVVLTMTNMDPVDTATYYCARTLDYYDSSGYLVGGAFDIWGQGTMVTVSS
VL: QPGLTQPPSVSLAPGQTARITCGGNNIGSKSVHWYQQKPGQAPVLVVYDDSDRPSGIPERFSGSNAGNTATLTISRVEAGDEADYYCQVWDSRSDQYVFGTRTKLTVL
notes: also called H1
For B7, the Kd in test [1] was 800 nM; in test [10], 800 nM; in test [11], 721 nM. Also, the “NT50 (nM), half neutralization titer” value in test [2] is 69.6 nM. In addition, the “Nmax (%), neutralization maximum” value in test [2] was determined as 87.7%. For the same molecule, the “normalized analyte binding to RBD2 held” value in test [3] was -0.03; in [4], 0.41; in [5], -0.03; in test [6] it was 1.75; in [7], -0.11; in [8], -0.05. Further, the “normalized analyte binding to RBD2 held” value is 0.77 in [9], 1.28 in [12], -0.05 in test [13] and 0.03 in [14].

As usually defined, the Kd is the constant that tells how readily two partners part at equilibrium.

(Values after patent publication US12018066 (TRIAD NATIONAL SECURITY, dated 2024).)
